No end group written: not given here.
Tests used:
Experiment in all cases: Kinase Profiling Assay
Type in all cases: biochemical
Conditions in all cases: peptide 100 μM
PAK5(h) = PAK5(h) (Homo sapiens, UniProt Q9P286)
Procedure, shortened: (§1)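 Radiometric filter-binding format: cationic substrate takes up labeled phosphate from ATP unless the inhibitor peptide blocks the kinase. Substrate bound to an anionic filter, scintillation-counted, normalized to 100% activity control. Duplicates; part of a 266-kinase selectivity panel for MK2 peptides.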

Met(M1268T)(h) = biological target: T1, Met(M1268T)(h) (Homo sapiens, UniProt P08581, M1250T)
T1 construct: purchased Millipore
Procedure, shortened: as §1

MST3(h) = biological target: T2, MST3(h) (Homo sapiens, UniProt Q9Y6E0)
T2 construct: purchased Millipore
Procedure, shortened: as §1

MEK1(h) = biological target: T3, MEK1(h) (Homo sapiens, UniProt Q02750)
T3 construct: purchased Millipore
Procedure, shortened: as §1

cKit(h) = cKit(h) (Homo sapiens, UniProt P10721)
Procedure, shortened: as §1

BTK(h) = BTK(h) (Homo sapiens, UniProt Q06187)
Procedure, shortened: as §1

NEK3(h) = biological target: T4, NEK3(h) (Homo sapiens, UniProt P51956)
T4 construct: purchased Millipore
T4 sequence (P51956 1-506): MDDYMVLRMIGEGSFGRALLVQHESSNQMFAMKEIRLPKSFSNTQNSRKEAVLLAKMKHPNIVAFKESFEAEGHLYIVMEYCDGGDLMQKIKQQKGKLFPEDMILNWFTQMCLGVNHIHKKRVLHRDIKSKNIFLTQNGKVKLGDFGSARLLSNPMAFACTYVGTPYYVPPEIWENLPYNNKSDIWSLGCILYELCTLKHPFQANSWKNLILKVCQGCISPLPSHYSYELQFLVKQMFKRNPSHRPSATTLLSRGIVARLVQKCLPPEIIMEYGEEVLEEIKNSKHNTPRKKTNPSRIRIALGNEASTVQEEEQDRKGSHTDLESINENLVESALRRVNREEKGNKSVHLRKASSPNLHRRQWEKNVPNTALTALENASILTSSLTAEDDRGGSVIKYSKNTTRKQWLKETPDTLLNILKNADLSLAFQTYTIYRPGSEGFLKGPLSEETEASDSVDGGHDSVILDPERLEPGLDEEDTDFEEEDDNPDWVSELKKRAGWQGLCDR
Procedure, shortened: as §1

DYRK2(h) = biological target: T5, DYRK2(h) (Homo sapiens, UniProt Q92630)
T5 sequence (Q92630 1-601): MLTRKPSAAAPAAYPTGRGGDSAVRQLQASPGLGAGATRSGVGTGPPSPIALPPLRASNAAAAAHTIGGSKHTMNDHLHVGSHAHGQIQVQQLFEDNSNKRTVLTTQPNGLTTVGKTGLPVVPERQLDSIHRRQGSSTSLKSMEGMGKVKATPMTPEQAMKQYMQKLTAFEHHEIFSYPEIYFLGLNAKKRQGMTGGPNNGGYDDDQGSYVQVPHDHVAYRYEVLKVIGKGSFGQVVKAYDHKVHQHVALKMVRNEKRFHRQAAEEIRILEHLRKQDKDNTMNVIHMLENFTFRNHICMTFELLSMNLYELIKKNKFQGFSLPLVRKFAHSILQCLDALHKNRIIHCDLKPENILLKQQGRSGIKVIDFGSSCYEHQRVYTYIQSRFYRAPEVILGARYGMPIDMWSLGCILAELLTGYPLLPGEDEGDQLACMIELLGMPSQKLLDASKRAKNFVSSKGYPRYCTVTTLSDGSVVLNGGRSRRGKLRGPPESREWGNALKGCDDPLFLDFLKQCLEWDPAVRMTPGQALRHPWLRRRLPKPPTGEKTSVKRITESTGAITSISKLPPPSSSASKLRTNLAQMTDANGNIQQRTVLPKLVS
Procedure, shortened: as §1

PASK(h) = PASK(h) (Homo sapiens, UniProt Q96RG2)
Procedure, shortened: as §1

IGF-1R(h), activated = biological target: T6, IGF-1R(h), activated (Homo sapiens, UniProt P08069)
T6 construct: purchased Millipore
Procedure, shortened: as §1

SAPK2a(h) = biological target: T7, SAPK2a(h) (Homo sapiens, UniProt Q16539)
T7 construct: purchased Millipore
Procedure, shortened: as §1

AMPKα1(h) = AMPKα1(h) (Homo sapiens, UniProt Q13131)
Procedure, shortened: as §1

eEF-2K(h) = eEF-2K(h) (Homo sapiens, UniProt O00418)
Procedure, shortened: as §1

TAK1(h) = biological target: T8, TAK1(h) (Homo sapiens, UniProt O43318)
T8 construct: purchased Millipore
T8 sequence (O43318 1-303 limits assumed): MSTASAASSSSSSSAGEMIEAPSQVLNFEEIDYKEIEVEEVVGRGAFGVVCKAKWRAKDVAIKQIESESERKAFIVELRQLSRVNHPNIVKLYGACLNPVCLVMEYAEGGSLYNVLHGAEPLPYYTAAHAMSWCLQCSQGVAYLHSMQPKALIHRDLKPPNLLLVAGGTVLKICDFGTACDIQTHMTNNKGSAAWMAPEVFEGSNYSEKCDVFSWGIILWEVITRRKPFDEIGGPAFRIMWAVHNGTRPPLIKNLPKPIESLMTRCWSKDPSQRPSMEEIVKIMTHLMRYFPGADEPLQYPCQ
Procedure, shortened: as §1

T6 sequence (P08069 959-1367 limits assumed): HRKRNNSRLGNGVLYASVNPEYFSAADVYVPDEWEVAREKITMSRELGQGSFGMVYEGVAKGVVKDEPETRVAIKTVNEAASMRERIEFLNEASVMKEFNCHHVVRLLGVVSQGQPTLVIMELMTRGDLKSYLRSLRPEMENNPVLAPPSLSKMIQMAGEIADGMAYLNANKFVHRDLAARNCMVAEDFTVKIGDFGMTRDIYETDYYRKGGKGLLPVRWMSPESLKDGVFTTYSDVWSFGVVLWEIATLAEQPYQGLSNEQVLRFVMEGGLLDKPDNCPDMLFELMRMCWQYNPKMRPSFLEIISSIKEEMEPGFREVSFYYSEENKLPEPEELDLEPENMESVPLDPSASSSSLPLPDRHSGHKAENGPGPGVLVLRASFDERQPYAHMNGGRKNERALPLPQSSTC
T7 sequence (Q16539 whole entry): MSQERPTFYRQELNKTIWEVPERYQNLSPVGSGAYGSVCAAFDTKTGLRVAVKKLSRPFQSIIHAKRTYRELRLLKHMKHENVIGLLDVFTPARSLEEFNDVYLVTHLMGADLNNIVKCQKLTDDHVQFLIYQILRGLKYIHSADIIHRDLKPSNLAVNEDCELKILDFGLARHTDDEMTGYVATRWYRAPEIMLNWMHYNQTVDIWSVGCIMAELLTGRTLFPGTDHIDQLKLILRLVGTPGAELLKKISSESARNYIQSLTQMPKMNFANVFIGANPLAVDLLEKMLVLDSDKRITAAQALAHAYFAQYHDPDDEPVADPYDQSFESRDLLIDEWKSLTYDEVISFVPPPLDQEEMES
Sequence of AMPKα1(h) (Q13131 whole entry): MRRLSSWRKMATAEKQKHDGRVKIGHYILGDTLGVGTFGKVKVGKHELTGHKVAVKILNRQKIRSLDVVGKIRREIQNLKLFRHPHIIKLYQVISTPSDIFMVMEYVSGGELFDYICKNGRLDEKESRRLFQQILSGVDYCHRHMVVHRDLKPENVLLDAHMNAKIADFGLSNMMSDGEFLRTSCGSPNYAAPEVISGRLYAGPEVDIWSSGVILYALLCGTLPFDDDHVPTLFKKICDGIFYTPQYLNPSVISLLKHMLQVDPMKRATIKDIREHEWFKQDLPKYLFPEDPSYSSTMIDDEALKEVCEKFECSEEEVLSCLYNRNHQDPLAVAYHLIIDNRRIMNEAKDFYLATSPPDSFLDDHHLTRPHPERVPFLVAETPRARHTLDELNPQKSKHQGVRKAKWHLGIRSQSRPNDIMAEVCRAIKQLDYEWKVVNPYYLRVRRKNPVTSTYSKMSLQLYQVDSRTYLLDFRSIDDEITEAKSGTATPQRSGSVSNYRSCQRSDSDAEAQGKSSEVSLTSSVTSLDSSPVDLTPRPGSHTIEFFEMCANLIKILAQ
Sequence of AMPKα1(h) (Q9Y478 whole entry partner): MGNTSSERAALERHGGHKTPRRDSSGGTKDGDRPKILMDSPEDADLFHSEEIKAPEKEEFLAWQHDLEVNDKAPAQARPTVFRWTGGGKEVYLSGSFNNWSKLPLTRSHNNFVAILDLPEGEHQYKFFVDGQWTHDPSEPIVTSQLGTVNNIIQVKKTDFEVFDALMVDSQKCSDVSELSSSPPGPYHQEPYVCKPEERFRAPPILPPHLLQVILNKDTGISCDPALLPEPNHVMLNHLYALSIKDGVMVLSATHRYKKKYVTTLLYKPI
Sequence of AMPKα1(h) (P54619 whole entry partner): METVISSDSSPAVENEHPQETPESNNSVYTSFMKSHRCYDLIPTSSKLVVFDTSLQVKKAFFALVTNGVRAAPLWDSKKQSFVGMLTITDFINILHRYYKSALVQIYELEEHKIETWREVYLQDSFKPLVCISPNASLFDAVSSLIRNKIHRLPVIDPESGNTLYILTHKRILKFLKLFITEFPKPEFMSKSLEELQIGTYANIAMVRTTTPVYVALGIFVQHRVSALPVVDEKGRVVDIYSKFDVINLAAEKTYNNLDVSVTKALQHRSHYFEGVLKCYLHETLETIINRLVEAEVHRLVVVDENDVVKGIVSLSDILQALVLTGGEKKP
Sequence of BTK(h) (Q06187 whole entry): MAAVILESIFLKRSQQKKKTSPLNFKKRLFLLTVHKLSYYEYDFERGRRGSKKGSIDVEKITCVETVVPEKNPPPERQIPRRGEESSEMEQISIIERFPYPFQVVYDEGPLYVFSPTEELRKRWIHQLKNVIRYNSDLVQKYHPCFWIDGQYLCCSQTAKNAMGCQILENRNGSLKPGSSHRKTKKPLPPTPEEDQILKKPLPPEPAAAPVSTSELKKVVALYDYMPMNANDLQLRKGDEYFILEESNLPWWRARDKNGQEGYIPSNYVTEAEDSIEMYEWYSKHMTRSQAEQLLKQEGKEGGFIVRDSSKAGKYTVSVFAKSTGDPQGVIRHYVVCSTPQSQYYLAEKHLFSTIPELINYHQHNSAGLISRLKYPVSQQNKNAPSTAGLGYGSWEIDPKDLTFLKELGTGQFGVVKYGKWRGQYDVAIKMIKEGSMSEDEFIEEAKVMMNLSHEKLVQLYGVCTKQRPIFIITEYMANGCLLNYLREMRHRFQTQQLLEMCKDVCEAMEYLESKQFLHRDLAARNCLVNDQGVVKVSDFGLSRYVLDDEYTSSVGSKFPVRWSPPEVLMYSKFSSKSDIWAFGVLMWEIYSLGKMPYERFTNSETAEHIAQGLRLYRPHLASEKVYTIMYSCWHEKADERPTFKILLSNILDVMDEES
Sequence of PAK5(h) (Q9P286 whole entry): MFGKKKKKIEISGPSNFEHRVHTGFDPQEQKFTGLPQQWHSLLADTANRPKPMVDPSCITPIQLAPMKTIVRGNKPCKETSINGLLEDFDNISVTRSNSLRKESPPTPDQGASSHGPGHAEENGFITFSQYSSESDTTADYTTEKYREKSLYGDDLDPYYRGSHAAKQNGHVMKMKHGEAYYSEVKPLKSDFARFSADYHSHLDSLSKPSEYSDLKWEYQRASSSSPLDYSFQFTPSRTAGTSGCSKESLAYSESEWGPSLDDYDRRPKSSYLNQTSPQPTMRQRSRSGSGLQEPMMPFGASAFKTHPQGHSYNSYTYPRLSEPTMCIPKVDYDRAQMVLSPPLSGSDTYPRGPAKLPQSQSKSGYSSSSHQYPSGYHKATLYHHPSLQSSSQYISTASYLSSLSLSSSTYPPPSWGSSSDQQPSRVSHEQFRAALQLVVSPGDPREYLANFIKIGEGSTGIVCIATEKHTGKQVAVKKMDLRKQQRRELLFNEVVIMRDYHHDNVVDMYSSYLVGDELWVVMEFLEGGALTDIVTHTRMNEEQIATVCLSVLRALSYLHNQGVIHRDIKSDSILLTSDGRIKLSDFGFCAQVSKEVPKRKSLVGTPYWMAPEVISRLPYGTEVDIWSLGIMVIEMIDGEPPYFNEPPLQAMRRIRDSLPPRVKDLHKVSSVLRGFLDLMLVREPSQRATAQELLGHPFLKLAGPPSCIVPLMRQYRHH
Sequence of PASK(h) (Q96RG2 whole entry): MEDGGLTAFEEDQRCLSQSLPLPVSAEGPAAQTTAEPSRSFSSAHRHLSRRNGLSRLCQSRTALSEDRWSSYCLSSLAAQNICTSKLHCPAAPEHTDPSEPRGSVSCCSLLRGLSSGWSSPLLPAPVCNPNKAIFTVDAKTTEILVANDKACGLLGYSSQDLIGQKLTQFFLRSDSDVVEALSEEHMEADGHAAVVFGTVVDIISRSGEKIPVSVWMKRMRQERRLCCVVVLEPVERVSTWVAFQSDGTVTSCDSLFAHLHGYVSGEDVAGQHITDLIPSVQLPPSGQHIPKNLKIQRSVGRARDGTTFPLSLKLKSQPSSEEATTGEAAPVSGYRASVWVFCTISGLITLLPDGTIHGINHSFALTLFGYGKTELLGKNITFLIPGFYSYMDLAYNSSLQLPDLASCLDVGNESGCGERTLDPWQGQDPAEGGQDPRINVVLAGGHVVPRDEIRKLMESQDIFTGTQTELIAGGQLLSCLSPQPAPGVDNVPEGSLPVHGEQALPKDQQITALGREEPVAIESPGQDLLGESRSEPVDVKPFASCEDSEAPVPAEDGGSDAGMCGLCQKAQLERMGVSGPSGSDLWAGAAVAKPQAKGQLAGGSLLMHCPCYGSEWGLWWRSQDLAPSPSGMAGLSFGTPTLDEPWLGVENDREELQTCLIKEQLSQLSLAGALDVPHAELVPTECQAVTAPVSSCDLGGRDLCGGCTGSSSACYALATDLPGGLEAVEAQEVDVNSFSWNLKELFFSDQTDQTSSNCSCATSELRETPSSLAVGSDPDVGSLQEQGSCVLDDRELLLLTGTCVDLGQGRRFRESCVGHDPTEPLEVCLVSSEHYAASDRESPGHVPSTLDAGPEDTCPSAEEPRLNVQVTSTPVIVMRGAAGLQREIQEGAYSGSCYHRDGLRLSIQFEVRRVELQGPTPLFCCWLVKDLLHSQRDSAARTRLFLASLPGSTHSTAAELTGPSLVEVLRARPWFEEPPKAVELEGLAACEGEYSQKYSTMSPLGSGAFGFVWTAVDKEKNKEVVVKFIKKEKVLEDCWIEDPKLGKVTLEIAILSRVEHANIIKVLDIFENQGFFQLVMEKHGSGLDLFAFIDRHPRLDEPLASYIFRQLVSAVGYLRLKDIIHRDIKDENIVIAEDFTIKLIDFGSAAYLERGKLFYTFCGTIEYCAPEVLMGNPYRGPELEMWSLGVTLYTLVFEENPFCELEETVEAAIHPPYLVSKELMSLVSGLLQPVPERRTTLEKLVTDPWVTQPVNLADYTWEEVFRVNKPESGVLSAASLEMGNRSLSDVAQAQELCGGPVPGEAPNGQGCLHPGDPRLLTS

Sequence	% activity (PAK5(h))	% activity (Met(M1268T)(h))	% activity (MST3(h))	% activity (MEK1(h))	% activity (cKit(h))	% activity (BTK(h))	% activity (NEK3(h))	% activity (DYRK2(h))	% activity (PASK(h))	% activity (IGF-1R(h), activated)	% activity (SAPK2a(h))	% activity (AMPKα1(h))	% activity (eEF-2K(h))	% activity (TAK1(h))
HRRIKAWLKKIKALARQLGVAA (Mammal) [MMI-0500]	125%	239%	4%	21%	45%	18%	20%	127%	9%	45%	52%	35%	43%	–
YARAAARQARAKALNRQLGVA (Mammal) [MMI-0200]	100%	143%	95%	–	110%	100%	100%	142%	60%	94%	–	108%	–	124%
YARAAARQARAKALARQLGVAA [MMI-0100]	–	–	–	–	95%	–	100%	–	81%	126%	–	–	–	–
FAKLAARLYRKALARQLGVAA [MMI-0300]	110%	255%	45%	77%	53%	–	92%	155%	29%	80%	90%	71%	91%	122%
KAFAKLAARLYRKALARQLGVAA [MMI-0400]	–	265%	36%	77%	43%	94%	85%	195%	28%	77%	85%	87%	43%	177%
